From patent US20080261267A1, “Cellulases from Rumen” (priority 2004, published 2008)

B1: pBKRR.14: rumen endoglucanase, sequences FIG. 16/24; also capable of hydrolyzing xylan (protein)
chain: MINVLQHHPEVELSVDKTSVSFNRSGGEETFTVTSSTQPHVSADVSWVVVETGKIDKDHHTEVRVLAGANRKEASAGTLTVSCSDKKVSVSVKQEAFVAPSVASTTAVTPQMVFDAMGPGWNMGNHMDAISNGVSGETVWGNPKCTQATMDGVKAAGYKAVRICTTWEGHIGAAPAYALEQKWLDRVAEIVGYAEKAGLVAIVNTHHDESYWQDISKCYNNAANHEKVKDEVFSVWTQIAEKFKDKGEWLVFESFNEIQDGGWGWSDAFRKNPDAQYKVLNEWNQTFVDAVRSTGGQNATRWLGIPGYACNPGFTIAGLVLPKDYTTANRLMVAVHDYDPYDYTLKDPLIRQWGHTADADKRPSGDNEKAVVDVFNNLKAAYLDKGIPVYLGEMGCSRHTAADFPYQKYYMEYFCKAAADRLLPMYLWDNGAKGVGSERHAYIDHGTGQFVDEDARTLVGLMVKAVTTKDASYTLESVYNSAP
modifications: Description of sequence sequence derived from genomic DNA library from rumen ecosystem, particularly amino acid sequence of clones pBKRR 14 and 20-1; RR14=RR20-1;(see Figure 24)
notes: also capable of hydrolyzing xylan
B2: pBKRR.22: rumen endo-beta-1,4-glucanase, sequences FIG. 11/19 (protein)
chain: MLLASFSLFSCGGSDGDDSTPTPSVSLQLVSQSIAEGAQVDAASTTVLTLNYNNPVRVTGNGVTLNGIAVKAKVSGNTSVEIPLTLVEGTVYTLKVAWGAIVAAADGKVVAPEFTLNFTTKGNQQPPIDENSPIAKKMGWGWNLGNHFDTSSGADGVRPQWGYWDNAKPTQVLYNNLRNAGTSTVRIGVTWGNYQNTSNWDIDANYIAEVRQNVEWAEAAGLNVILNMHHDEYWLDIKGAANNSSTNTNIKNRIEKTWKQIAEAFKDKGEFLIFESFNEIQDGGWGWGANRTDGGKQYKTLNEWNQLVVNTIRATGGNNATRWIGIPSYAANPSLALETGFVLPTDAANRLMVSVHFYDPSNFTLSPYVSDDSSEYKSGGYSEWGHTAAKGKADTGSNEDHVVAIFKKLHDKFVAKNIPVYIGEYGCVMHKNTRSNYFRNYYLEYVCRAAHEYGMPLCIWDNNQTGGGNEHHGYFNHTDGQYLNAMESLVKTMIKAATSDDASYTLESVYNKAPK
modifications: Description of sequence sequence derived from genomic DNA library from rumen ecosystem, particularly amino acid sequence of clones pBKRR 22, 6, 8 and 23;(see Figure 19)

Legend:
[1] = Detergent resistance (effect of surfactants on activity); type: biochemical
Procedure: The detergent resistance or in other words the effect of surfactants on the activity of the polypeptide of the invention was measured. […] Also, the effect of several commonly used inhibitors on the activity of the polypeptide of the invention was investigated. Sulfhydryl inhibitors such as N-ethylmaleimide, iodoacetate and p-chloromercuribenzoate were all inhibitory. The chelating agents EDTA (ethylenediaminetetraacetic acid) and EGTA (ethyleneglycoltetraacetic acid) a more efficient chelator of Ca^2+ (inhibition >30%) and O-phenanthroline (inhibition >71%) had essentially no effect on the activity of the polypeptides or were slightly stimulatory. In summary, the polypeptides of the invention are well suited to be used for the treatment of cellulosic textiles or fabrics, especially as an ingredient in a detergent composition, because of their high activity at high pH and high stability against metal ions or various components of laundry products such as surfactants, chelating agents or proteinases. In general, they are also suited to be used in compositions containing several commonly used inhibitors.
FIG. 3 represents Table 3 giving an overview over the biochemical properties of the cellulases according to the invention. Reaction was performed at the optimum pH and temperature for each done using CMC as substrate. […] The values for clones pBKRR.1, 9, 11, 13, 14, 16 and 22 are depicted. For each clone the following data are given: • maximum pH at which the remaining activity after 24 h incubation at the indicate pH is >90% (column “Stable at pH”). […] Activity was measured after 2 h incubation and compared with a control reaction in buffer lacking dimethylsulfoxide, • detergent resistance given by the remaining activity in the corresponding buffer (optimum pH) containing the indicate detergent at a concentration for 0 to 3%. […] The effect of mono- (Na^+, K^+, NH4^+, and divalent cations (Ca^2+, Mn^2+, Mg^2+, Sr^2+, Fe^2+, Cu^2+, Ni^2+, Co^2+, Zn^2+) was first examined by treating the enzyme with chelating agents (EDTA and EGTA) to remove any endogenous divalent cations, followed by adding cations to the reaction mixture.
To study the effect of cations, inhibitors and surfactants on endoglucanase activity, the conditions were as follows: All cations tested were added as chloride salts and tested at a concentration of 10 mM. […] The effects of detergents on the endoglucanase activity was analysed by adding of 1-3% (wt/vol) detergent to the enzyme solution. In all cases, the enzyme activity was assayed in triplicate using the standard cellulose assay described above and the residual activity was expressed as percent of the control value (without addition of chemicals).

[2] = TLC analysis of hydrolysis products; type: biochemical; conditions: pH 5.6, 50° C.
Source text: FIG. 7 depicts the result of thin layer chromatography TLC analysis of products of CMC hydrolyzed by endoglucanases derived from a rumial genomic DNA library. The methods used for cellulase and substrate preparation, hydrolysis, TLC, and visualization are described in Example 5. The hydrolysis products glucose, cellobiose, cellotriose are shown an the right side. […] Different pattern was found when using short-chain beta-1,4-glucans.
The products formed by hydrolysis of cellulose-based substrates (cellobiose, cellotetraose, cellopentaose, cellulose and carboxymethyl cellulose) were analysed by thin-layer chromatography (TLC). Solutions containing 20 μg of E. coli cell lysate proteins and 0.2% (wt/vol) substrate in 50 mM acetate buffer (pH 5.6) were incubated at 50° C. until maximum conversion was achieved. The reactions were terminated by heating the preparation for 5 min at 95° C. and hydrolysis products were separated by TLC on silica gel plates (Merck, Darmstadt, Germany) by using a mixture chloroform, glacial acetic acid, and water (6:14:1) as the solvent. […] Sugars were visualized by heating 105° C. for 15 min the plates which were previously sprayed with a reagent containing amine (2 ml), diphenylamine (2 g), acetone (100 ml) and 85% H3PO4 (15 ml).

Row | Molecule | activity in the presence of SDS (% more active and stable) ([1]; SDS 1-3%, 2 h incubation, versus control without detergent) [%] | activity in the presence of Triton X-100 (% more active and stable) ([1]; Triton X-100 1-3%, 2 h incubation, versus control without detergent, pH and temperature per clone) [%] | main hydrolysis products of CMC [2] | effect of SDS on activity ([1]; SDS 1 mM or higher) | effect of Triton X-100 on activity ([1]; Triton X-100 up to 1-3%)
1 | B1 | 161 | 134 | cellobiose and cellotriose | – | –
2 | B2 | – | – | cellobiose and cellotriose | inhibited by SDS at concentrations higher than 1 mM | resistant to Triton X-100 up to 1-3%
